Data: article PMC4538796
pKd: −log10 of the molar value.

Experiments:
[1] = target: GAGAH (GAGA zinc finger/AT-Hook conjugate) (UniProt Q08605); assay: fluorescence anisotropy; details: Zn2+, Anisotropy (given for GAGAH): 20 mM Tris-HCl pH 7.5, 100 mM NaCl, 0.02 mM ZnCl2, 20 C, 25 nM TMR-DNA, EMSA: 75 nM dsDNA, rt (GAGAH), 10% native PAGE, 0.5x TBE …
[2] = target: brH (GCN4 basic region/AT-Hook conjugate) (UniProt P03069); assay: fluorescence anisotropy; details: 20 C; 25 nM DNA; apparent; Anisotropy (given for GAGAH): 20 mM Tris-HCl pH 7.5, 100 mM NaCl, 0.02 mM ZnCl2, 20 C, 25 nM TMR-DNA; EMSA: 75 nM dsDNA, rt (GAGAH), 10% native PAGE, 0.5x TBE …

Sequence of UniProt Q08605 (Q08605 other isoform, or with tags, fused parts or gaps, change not shown): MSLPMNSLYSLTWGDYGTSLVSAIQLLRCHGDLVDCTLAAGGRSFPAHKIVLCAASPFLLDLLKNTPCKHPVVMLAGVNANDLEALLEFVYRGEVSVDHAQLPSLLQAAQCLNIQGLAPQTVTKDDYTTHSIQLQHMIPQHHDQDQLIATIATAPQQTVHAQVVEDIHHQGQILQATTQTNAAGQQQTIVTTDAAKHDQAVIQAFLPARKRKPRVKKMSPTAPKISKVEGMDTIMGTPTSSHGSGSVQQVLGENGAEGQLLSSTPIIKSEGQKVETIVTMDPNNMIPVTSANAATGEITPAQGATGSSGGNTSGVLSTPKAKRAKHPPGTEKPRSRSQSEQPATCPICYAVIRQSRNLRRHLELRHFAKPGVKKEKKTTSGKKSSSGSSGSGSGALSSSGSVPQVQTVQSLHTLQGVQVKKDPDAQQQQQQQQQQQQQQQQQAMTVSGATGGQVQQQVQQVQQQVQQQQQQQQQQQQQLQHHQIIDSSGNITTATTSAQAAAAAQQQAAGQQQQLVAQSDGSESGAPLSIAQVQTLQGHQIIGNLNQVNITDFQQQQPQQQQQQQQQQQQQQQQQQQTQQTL

Work on “CGCGTCATAATTGAGAGCGC (double strand) [TMR-AP1hs·AT = TMR-AT·GAGA]” yielded a pKd ([1]; 20 C, 25 nM DNA, apparent) of 7.59, a pKd ([1]; excess calf thymus DNA competitor) of 7.38 and a pKd [2] of 7.55.
